“And” between values parts separate entries of the source, which are not always exact repeats. Identical values can stand only once.
B1: Erythrobacter litoralis HTCC2594 epoxide hydrolase rEEH1 (EEH1), SEQ ID NO: 13 (Erythrobacter litoralis HTCC2594) (protein)
chain: MSEIRPFVLDVPKADLDRLHRKLDDTRWPEKEPVDDWSQGTPLAALQDLAAYWRDGYDWRAGEAKLNALGQFITEIDGLDIHFLHVRSKCDDALPLILTHGWPGSVREFFDVIPLLTEPQDGMAFHVVAPSLPGFGFSGKPRNTGWGVDKIATAWATLMQRLGYTEWVAQGGDWGSAVTTAIGAQAPEGCKGIHVNMPIGRPGPDDMANPGPDELKALKALKFYQDWDSGYSKQQSTRPQTIGYSLVDSPVGLAGWIFEKMFFWTDNGGSPFDTLSMDAILDNIMLYWLPETGASAARLYWESFARFGEGTVAIPAGVSAFPKEIIPAPRKWAERRYADLVYWNECEKGGHFAAWEQPELFAAELRACFSLMR
notes: microsomal-EH-like
B2: Erythrobacter litoralis HTCC2594 epoxide hydrolase rEEH2 (EEH2), SEQ ID NO: 15 (Erythrobacter litoralis HTCC2594) (protein)
chain: MAGPSLGEWKAKAQHFAYDGLQIAFWTGGKPDARPLLLVHGYPTASWDWHRVWETLGSKYHLVAPDMIGFGLSDKPRSGYSIHRQADMHVALLDHLGIGAFDALVHDYGVSVGQELLARRAERSAAQGLGQTVFLNGGIFPDQHRPRPIQKLGTSPLGFLVGLLTNREKFGRSFSEVFGPDTQPGAQELDEFWDLVSHNGGNRIMHKLLHYIADRKEHAERWFDALRIAQGDIGLINGALDPVSGRHAYEAWRERLPDARHHLIPTVGHYPQVEDPQTVSRVTLDWLAR
notes: soluble-EH-like alpha/beta hydrolase
B3: Erythrobacter litoralis HTCC2594 epoxide hydrolase rEEH3 (EEH3), SEQ ID NO: 17 (Erythrobacter litoralis HTCC2594) (protein)
chain: MPDPASGIAINRVPANGLEFEVAMAGEGDHLALMLHGFPELHFSWRHQMPLLAEMGYRVWAPNMRGYGETTRPTEVRDYALDHLTQDVAALIDASGATKVTLIAHDWGAIIAWYFAILKLRPLERLVIMNVPHPKVLQRELRRWEQIKKSWYVFFFQLPWLPEKRIGADSGKRIGELFAQTSCNPERFGPDVKAVYAAGAARPGAPRAMVNYYRAAMRHRDTIDPGDFRVDVPTLLVWGEEDVALNIRCTEGTEQWVPDITVKRLPNVSHWVQQDAPDEVNAILREWLPKPAPAS
notes: as for B2
B4: Rhodobacterium sp. HTCC2654 epoxide hydrolase rEEH (RH), SEQ ID NO: 32 (Maritimibacter alkaliphilus HTCC2654) (protein)
chain: MNDKTFIETNGIRLATRIEGDGPLVILVHGFPETAYSWRKQASPLVEAGYRVCIPDVRGYGNSDAPEAVSAYAMEVMTRDFLGLAQALSEVPAVIVGHDWGAPLAWNTARLFPEQFRAVAGLSVPYAPPGDVAPIDLYHKLFTDKGRFFYQVYFQDEGVAEAELEADVEDSLAKFYYAWSGDCPPNGWPNDKAHGDPVLKGLPRPDLPLPWLTQDDLDRYAADFRTSGFRGPLNRYRNQREDHAFLKAHPSNPIIQQPSLFLYGDRDPVLTMFRTPPEDLLPKTLADLRGVHRLPGVGHWTQQEAPEAVNKALIDWLATL
notes: as for B2

Tests used:
[1] = substrate: c1ccc([C@H]2CO2)cc1; test: Kinetic parameters of purified rEEH1 by GC analysis with (R)- or (S)-styrene oxide; format: biochemical, Erythrobacter litoralis HTCC2594; settings: other: 100 mM potassium phosphate pH 8.0, 30° C.
Protocol: (§1) Kinetic parameters of the rEEH1, rEEH2, rEEH3, sEEH, nEEH, and rEEH were determined by a GC analysis using (R)- or (S)- styrene oxide substrate. 100 ul of purified EHases were mixed with various concentrations of (R)- or (S)- styrene oxide in a 10 ml tube containing 1 ml of potassium phosphate buffer (100 mM, pH 8.0), and shake-incubated at 200 rpm and a temperature of 30° C. The extraction mixtures were extracted with 2 ml of hexane, and enantiomeric excess [ee; ee=100×(S−R)/(S+R)] toward enantiopure styrene oxide was analyzed with a chiraldex gamma-cyclodextrin trifluoroacetyl(G-TA) capillary GC column. Wherein, the FIG. 8 was diagramed with GC analysis for the hydrolyzing activities of enantioselective EHases (rEEH1, rEEH2, and rEEH3) toward racemic styrene oxide.
(§2) Kinetic parameters were estimated by non-linear regression analysis using a Sigma Plot program, and various substrates as depicted in FIG. 1 were also tested for the enantioselective hydrolyzing activity by rEEH1, rEEH2, rEEH3, sEEH, nEEH, and rEEH.

[2] = substrate: c1ccc([C@@H]2CO2)cc1; test: as above; format: biochemical, Erythrobacter litoralis HTCC2594; settings: other: 100 mM potassium phosphate pH 8.0, 30° C.
Protocol: as §1, §2

[3] = Enantioselective hydrolyzing activity of purified EHases toward EB; format: biochemical; settings: for Hydrolysis rate EB (R): (R)-enantiomer; for Hydrolysis rate EB (S): (S)-enantiomer
Protocol: as §1, §2

[4] = Effects of pH and temperature on the EHase activity of rEEH1, rEEH2 and rEEH3; format: biochemical; settings: for optimum temperature (maximum hydrolysis rate): 10 to 70° C. at pH 7.5; for optimum pH: activity toward styrene oxide, pH 4.0 to 10.0
Protocol: The effect of pH on the EHase activity was measured with 50 mM sodium acetate-acetic acid buffer (pH 4.0 and 6.0), 50 mM MES buffer (pH 6.0 to 7.0), 50 mM Phosphate buffer (pH 7.0 to 9.0), and 50 mM Glycine buffer (pH 9.0 and 10.0), and the optimum reaction temperature on the EHase activity was measured over a temperature of range from 10 to 70° C. at pH 7.5.

[5] = Enantioselective hydrolyzing activity of purified EHases toward EX; format: biochemical; settings: for Hydrolysis rate EX (R): (R)-enantiomer; for Hydrolysis rate EX (S): (S)-enantiomer
Protocol: as §1, §2

[6] = Enantioselective hydrolyzing activity of purified EHases toward GPE; format: biochemical; settings: for Hydrolysis rate GPE (R): (R)-enantiomer; for Hydrolysis rate GPE (S): (S)-enantiomer
Protocol: as §1, §2

[7] = Enantioselective hydrolyzing activity of purified EHases toward EF; format: biochemical
Protocol: as §1, §2

[8] = Kinetic parameters of purified EHases by GC analysis, (S)-styrene oxide; format: biochemical; settings: (S)-enantiomer of styrene oxide, Table 5
Protocol: as §1, §2

[9] = Kinetic parameters of purified EHases by GC analysis, (R)-styrene oxide; format: biochemical; settings: (R)-enantiomer of styrene oxide, Table 5
Protocol: as §1, §2

[10] = Enantioselective hydrolyzing activity of purified EHases toward SO; format: biochemical; settings: for Hydrolysis rate SO (R): (R)-enantiomer; for Hydrolysis rate SO (S): (S)-enantiomer; for enantiomer preference in hydrolysis of styrene oxide, in words: purified enzyme
Protocol: as §1, §2

[11] = Substrate selectivity of rEEH1, rEEH2 and rEEH3 toward various epoxide substrates; format: biochemical; settings: purified enzyme
Protocol: Also, the substrate selectivity of rEEH1, rEEH2 and rEEH3 toward various epoxide substrates depicted in FIG. 1 was same to Table 4.
as §2

[12] = substrate: c1ccc([C@H]2CO2)cc1; test: Kinetic parameters of purified rEEH2 by GC analysis with (R)- or (S)-styrene oxide; format: biochemical, Erythrobacter litoralis HTCC2594; settings: other: 100 mM potassium phosphate pH 8.0, 30° C.
Protocol: as §1, §2

[13] = substrate: c1ccc([C@@H]2CO2)cc1; test: as above; format: biochemical, Erythrobacter litoralis HTCC2594; settings: other: 100 mM potassium phosphate pH 8.0, 30° C.
Protocol: as §1, §2

[14] = Enantioselective hydrolyzing activity of purified EHases toward ECH; format: biochemical; settings: for Hydrolysis rate ECH (R): (R)-enantiomer; for Hydrolysis rate ECH (S): (S)-enantiomer
Protocol: as §1, §2

[15] = substrate: c1ccc([C@H]2CO2)cc1; test: Kinetic parameters of purified rEEH3 by GC analysis with (R)- or (S)-styrene oxide; format: biochemical, Erythrobacter litoralis HTCC2594; settings: other: 100 mM potassium phosphate pH 8.0, 30° C.
Protocol: as §1, §2

[16] = substrate: c1ccc([C@@H]2CO2)cc1; test: as above; format: biochemical, Erythrobacter litoralis HTCC2594; settings: other: 100 mM potassium phosphate pH 8.0, 30° C.
Protocol: as §1, §2

[17] = substrate: c1ccc([C@H]2CO2)cc1; test: Kinetic parameters of purified rEEH by GC analysis with (R)- or (S)-styrene oxide; format: biochemical, Rhodobacterium sp. HTCC2654; settings: other: 100 mM potassium phosphate pH 8.0, 30° C.
Protocol: as §1, §2

[18] = substrate: c1ccc([C@@H]2CO2)cc1; test: as above; format: biochemical, Rhodobacterium sp. HTCC2654; settings: other: 100 mM potassium phosphate pH 8.0, 30° C.
Protocol: as §1, §2

[19] = Optimum activity conditions of sEEH, nEEH and rEEH; format: biochemical
Protocol: After cloning the genes into pET-24a (+) expression vector, the vector was introduced into BL21-CondonPlus(DE3)-RP (Novagen), and then separated by SDS-PAGE. […] Also, the optimum activities of sEEH, nEEH, and rEEH occurred at neutral pH and mesophilic conditions (30 to 40° C.).

| Molecule | Hydrolysis rate EB (R) [3] | Hydrolysis rate EB (S) [3] | optimum temperature (maximum hydrolysis rate) [4] | optimum pH [4] | Hydrolysis rate EX (R) [5] | Hydrolysis rate EX (S) [5] | Hydrolysis rate GPE (R) [6] | Hydrolysis rate GPE (S) [6] | kcat Km [8] | kcat Km [9] | Hydrolysis rate SO (R) [10] | Hydrolysis rate SO (S) [10] | enantiomer preference in hydrolysis of styrene oxide, in words [10] | substrate selectivity, in words [11] | Hydrolysis rate ECH (R) [14] | Hydrolysis rate ECH (S) [14] | also measured |
| --- | --- | --- | --- | --- | --- | --- | --- | --- | --- | --- | --- | --- | --- | --- | --- | --- | --- |
| B1 | 15.0 (×10^−2) mg/min | 15.0 (×10^−2) mg/min | 50 °C | 6.5 | 7.00 (×10^−2) mg/min | 8.00 (×10^−2) mg/min | 11.0 (×10^−2) mg/min | 20.0 (×10^−2) mg/min | 10600 M⁻¹ s⁻¹ | 16300 M⁻¹ s⁻¹ | 28.0 (×10^−2) mg/min | 9.00 (×10^−2) mg/min | (R)-styrene oxide was hydrolyzed faster than (S)-styrene oxide | hydrolyzed enantioselectively toward monosubstituted epoxides with bulky ring at C-1 position | – | – | Km [1]: 2.3 mM; kcat [1]: 24.5 s⁻¹; Km [2]: 2.9 mM; Vmax [2]: 2.3 µmol/min; kcat [2]: 49.1 s⁻¹; Hydrolysis rate EF (R) ([7]; (R)-enantiomer): 4.00 (×10^−2) mg/min; Hydrolysis rate EF (S) ([7]; (S)-enantiomer): 15.0 (×10^−2) mg/min |
| B2 | 0.08 (×10^−2) mg/min | 0.08 (×10^−2) mg/min | 55 °C | 7.5 | 0.07 (×10^−2) mg/min | 0.07 (×10^−2) mg/min | 0.06 (×10^−2) mg/min | 0.07 (×10^−2) mg/min | 200 M⁻¹ s⁻¹ | 300 M⁻¹ s⁻¹ | 0.05 (×10^−2) mg/min | 0.06 (×10^−2) mg/min | both of (S)-styrene oxide and (R)-styrene oxide were hydrolyzed at an equal rate | – | 0.23 (×10^−2) mg/min | 0.23 (×10^−2) mg/min | Km [12]: 6.18 mM and 6.1 mM; Vmax [12]: 0.12 µmol/min and 0.1 µmol/min; kcat [12]: 1.7 s⁻¹; Km [13]: 5.49 mM and 5.4 mM; Vmax [13]: 0.11 µmol/min and 0.1 µmol/min; kcat [13]: 1.6 s⁻¹ |
| B3 | 0.08 (×10^−2) mg/min | 0.11 (×10^−2) mg/min | 45 °C | 8.0 | 0.17 (×10^−2) mg/min | 0.09 (×10^−2) mg/min | 0.10 (×10^−2) mg/min | 0.10 (×10^−2) mg/min | 1700 M⁻¹ s⁻¹ | 1600 M⁻¹ s⁻¹ | 0.10 (×10^−2) mg/min | 0.14 (×10^−2) mg/min | (S)-styrene oxide was hydrolyzed faster than (R)-styrene oxide | hydrolyzed enantioselectively aliphatic epoxides at C-1 position and styrene oxide | 0.26 (×10^−2) mg/min | 0.28 (×10^−2) mg/min | Km [15]: 3.71 mM and 3.7 mM; Vmax [15]: 0.43 µmol/min and 0.4 µmol/min; kcat [15]: 6.5 s⁻¹; Km [16]: 2.61 mM and 2.6 mM; Vmax [16]: 0.29 µmol/min and 0.2 µmol/min; kcat [16]: 4.3 s⁻¹ |
| B4 | – | – | – | – | – | – | – | – | – | – | – | – | hydrolyzed (R)-enantiopure styrene oxide | – | – | – | Km [17]: 4.1 ± 0.3 mM; Vmax [17]: 11.3 µmol/min/mg; kcat [17]: 6.7 s⁻¹; kcat/Km [17]: 1630 M⁻¹ s⁻¹; Km [18]: 5.2 ± 0.3 mM; Vmax [18]: 54.1 µmol/min/mg; kcat [18]: 32 s⁻¹; kcat/Km [18]: 6160 M⁻¹ s⁻¹; optimum temperature [19]: 30-40 °C |

From patent publication US8030048B2, “Enantioselective epoxide hydlrolase and method for preparing and enantiopure epoxide using the same” (Korea Ocean Research and Development Institute, priority 2005, dated 2011)
